This data set deals with the molecule itself. In words: SEC-MALS. In general terms: Size exclusion chromatography separates by hydrodynamic size, large species first.

As usually defined, the stoichiometry N is a count of units in the complex or per binding partner.

B1: His6-Plk4 PB1-PB2 (domain or fragment, D. melanogaster, UniProt O97143 382-602, looked up)
chain: DRISVPPLNTKRLLPTRYKTKNAIMSILRNGEVVLEFLKFRPTYNEDRINDICRISDDGQRIIIYQPDPGRGLPVREQPPDLQIPSGDCVYNYDNLPSKHWKKYIYGARFVGLVKSKTPKVTYFSTLGKCQLMETMTDFEIRFYSGAKLLKTPSEGLKVYDRNGMLLSDYSCSESRSLIEHGNECFTHCVNISNALEVAQTKDNSCFPVTIGRRPITDVQP
Consider B1, for which the “stoichiometry N” value turned out to be 2.

Source of the values: article PMC3496063 (Structure (London, England : 1993), 2012).
